Laboratory results published in paper PMC12276362 (Nature Communications, 2025).

Molecular target: rhAMPK protein (AMPKα2, Abiocenter Biotechnology) (human (printed only as the prefix rh), UniProt P54646 1-552)
Assay: BLI

Chain of rhAMPK protein (AMPKα2, Abiocenter Biotechnology) (P54646 whole entry): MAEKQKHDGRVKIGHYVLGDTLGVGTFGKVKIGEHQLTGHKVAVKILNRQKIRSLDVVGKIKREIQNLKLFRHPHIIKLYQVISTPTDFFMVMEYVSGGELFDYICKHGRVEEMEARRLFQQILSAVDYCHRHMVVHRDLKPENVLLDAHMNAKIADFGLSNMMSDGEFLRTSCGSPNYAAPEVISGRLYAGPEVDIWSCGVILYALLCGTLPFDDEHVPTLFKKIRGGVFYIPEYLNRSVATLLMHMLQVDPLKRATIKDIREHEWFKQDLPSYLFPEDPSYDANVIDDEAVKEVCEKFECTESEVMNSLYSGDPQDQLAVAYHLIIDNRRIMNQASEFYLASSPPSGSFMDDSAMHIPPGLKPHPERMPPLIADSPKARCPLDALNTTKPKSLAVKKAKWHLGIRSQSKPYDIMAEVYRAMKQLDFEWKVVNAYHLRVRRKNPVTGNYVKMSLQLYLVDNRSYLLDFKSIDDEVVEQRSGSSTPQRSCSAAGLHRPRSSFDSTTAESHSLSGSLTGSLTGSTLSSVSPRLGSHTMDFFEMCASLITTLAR

Kd: 0.0556 µM
B1: rhOTUD1 protein (enzyme, human (printed only as the prefix rh), UniProt Q5VV17 1-481, looked up)
chain: MQLYSSVCTHYPAGAPGPTAAAPAPPAAATPFKVSLQPPGAAGAAPEPETGECQPAAAAEHREAAAVPAAKMPAFSSCFEVVSGAAAPASAAAGPPGASCKPPLPPHYTSTAQITVRALGADRLLLHGPDPVPGAAGSAAAPRGRCLLLAPAPAAPVPPRRGSSAWLLEELLRPDCPEPAGLDATREGPDRNFRLSEHRQALAAAKHRGPAATPGSPDPGPGPWGEEHLAERGPRGWERGGDRCDAPGGDAARRPDPEAEAPPAGSIEAAPSSAAEPVIVSRSDPRDEKLALYLAEVEKQDKYLRQRNKYRFHIIPDGNCLYRAVSKTVYGDQSLHRELREQTVHYIADHLDHFSPLIEGDVGEFIIAAAQDGAWAGYPELLAMGQMLNVNIHLTTGGRLESPTVSTMIHYLGPEDSLRPSIWLSWLSNGHYDAVFDHSYPNPEYDNWCKQTQVQRKRDEELAKSMAISLSKMYIEQNACS
modifications: biotin (EZ-Link Sulfo-NHS-LC-Biotinylation Kit)
